Numbering of substitutions follows the chain as printed.
What was measured:
His10-MBD2 [1] = target: T1, His10-MBD2 (UniProt Q9UBB5 151-411); experiment: QCM; 500 nM DNA; threshold MBD2 density ~88 ng/cm2; up to 61% of bound DNA irreversible; BB: 50 mM Tris, 350 mM NaCl, 0.1% Triton X-100 (pH and temperature of BB not stated); 500 nM DNA, 30 min, QCM 5th overtone; His10MBD2 loaded at 1 uM in IB (50 mM Tris pH 7.2, 300 mM NaCl, 0.1% beta-mercaptoethanol); settings: protein: recombinant; tags: N-terminal His10; blunt
His10-MBD2 [2] = target: T1, His10-MBD2; experiment: QCM; 500 nM DNA; same trend as Mal5C*pG and Mal3C*pG; plateau between them; BB: 50 mM Tris, 350 mM NaCl, 0.1% Triton X-100 (pH and temperature of BB not stated); 500 nM DNA, 30 min, QCM 5th overtone; His10MBD2 loaded at 1 uM in IB (50 mM Tris pH 7.2, 300 mM NaCl, 0.1% beta-mercaptoethanol); settings: protein: recombinant; tags: N-terminal His10; blunt

T1 sequence (Q9UBB5 151-411): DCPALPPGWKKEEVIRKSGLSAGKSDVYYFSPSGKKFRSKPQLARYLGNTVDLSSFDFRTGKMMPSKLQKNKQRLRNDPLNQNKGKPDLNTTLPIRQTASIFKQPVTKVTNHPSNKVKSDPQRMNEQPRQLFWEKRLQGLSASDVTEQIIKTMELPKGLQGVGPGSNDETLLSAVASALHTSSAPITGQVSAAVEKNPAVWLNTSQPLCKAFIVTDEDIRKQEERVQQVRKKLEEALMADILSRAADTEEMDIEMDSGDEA

B1: Mal5C*pG (dsDNA)
DNA 1: CAGGCAGATGCGCAGCACCAAGCAGAGAGGCCCGGTGCAGGATCCCAGGCCCGAACCAGGCCCGGCTCAGTGGAGCCGGAAGGGGCAGGC
DNA 2: GCCTGCCCCTTCCGGCTCCACTGAGCCGGGCCTGGTTCGGGCCTGGGATCCTGCACCGGGCCTCTCTGCTTGGTGCTGCGCATCTGCCTG
modifications: 5-methyl-C at all CpGs, both strands (M.SssI); top strand C11, C33, C52, C63, C77
His10-MBD2 [1]
  binding result: binds

B2: Mal4C*pG (dsDNA)
DNA 1: B1 DNA 1 with C33G, G53C, A54G, C63A, A74C, C77T
DNA 2: B1 DNA 2 with G14A, T17G, G28T, T37C, C38G, G58C
modifications: 5-methyl-C at all CpGs, both strands (M.SssI); top strand C11, C32, C53, C74
His10-MBD2 [2]
  binding result: binds

From publication PMC9478954, “Density Control over MBD2 Receptor-Coated Surfaces Provides Superselective Binding of Hypermethylated DNA”
